We go through one molecule from patent publication US20240116985A1, “STAPLED PEPTIDES AND METHODS THEREOF” (priority 2020, published 2024).

“And” between values parts separate entries of the source, which are not always exact repeats. Equal values may be shown once. Starred links: 1 amine or outer side, 2 acyl side, 3 side chain; linkers in the order of their positions; H or OH if unused. Positions of bridges follow the written chain, without caps; N, C: chain ends. Non-standard residues stand in square brackets, D forms with d. PyrS2 = (S)-3-amino-1-((pent-4-en-1-yloxy)carbonyl)pyrrolidine-3-carboxylic acid, C=CCCCOC(=O)N1CC[C@@](N[*:1])(C(=O)[*:2])C1; B5 = 2-amino-2-(pent-4-en-1-yl)hept-6-enoic acid, C=CCCCC(CCCC=C)(N[*:1])C(=O)[*:2]; Bta = N[C@@H](Cc1csc2ccccc12)C(=O)O; αAllylPro = C=CC[C@@]1(C(=O)O)CCCN1; tBuAla = CC(C)(C)C[C@H](N)C(=O)O; 3Thi = N[C@@H](Cc1ccsc1)C(=O)O

Assay [1] deals with B-cat-Halo (beta-catenin HaloTag NanoBRET construct expressed in HEK293 cells) (UniProt P35222). As to the kind of experiment: NanoBRET in HEK293 cells, Bcat-Halo + TCF4-Luc, peptide at 10 uM.
Assay [2] deals with beta-catenin-Halo NanoBRET construct (Homo sapiens (Human)) (UniProt P35222). As to the kind of experiment: NanoBRET, Bcat-Halo/TCF4-Luc in HEK293 cells; peptide 5 uM; replicate 1; competitor TCF4-Luc.
Assay [3] has the same target. As to the kind of experiment: NanoBRET, Bcat-Halo/TCF4-Luc in HEK293 cells; peptide 5 uM; replicate 2; competitor TCF4-Luc.
Assay [4] has the same target. As to the kind of experiment: NanoBRET, Bcat-Halo/TCF4-Luc in HEK293 cells; peptide 5 uM; replicate 3; competitor TCF4-Luc.
The target is the same in assay [5]. As to the kind of experiment: NanoBRET, Bcat-Halo/TCF4-Luc in HEK293 cells; peptide 10 uM; replicate 1; competitor TCF4-Luc.
Assay [6] has the same target. As to the kind of experiment: NanoBRET, Bcat-Halo/TCF4-Luc in HEK293 cells; peptide 10 uM; replicate 3; competitor TCF4-Luc.
The target is the same in assay [7]. As to the kind of experiment: NanoBRET, Bcat-Halo/TCF4-Luc in HEK293 cells; peptide 20 uM; replicate 1; competitor TCF4-Luc. (In general: In BRET a luciferase serves as donor, and the signal depends on an acceptor being close.)
For assay [8] the target is unchanged. Put plainly: NanoBRET, Bcat-Halo/TCF4-Luc in HEK293 cells; peptide 20 uM; replicate 2; competitor TCF4-Luc.
The target is the same in assay [9]. Put plainly: NanoBRET, Bcat-Halo/TCF4-Luc in HEK293 cells; peptide 20 uM; replicate 3; competitor TCF4-Luc.
The target is the same in assay [10]. As to the kind of experiment: NanoBRET, Bcat-Halo/TCF4-Luc in HEK293 cells; peptide 2.5 uM; replicate 1; competitor TCF4-Luc.
For assay [11] the target is unchanged. As to the kind of experiment: NanoBRET, Bcat-Halo/TCF4-Luc in HEK293 cells; peptide 1.25 uM; replicate 1; competitor TCF4-Luc.
For assay [12] the target is unchanged. Put plainly: NanoBRET, Bcat-Halo/TCF4-Luc in HEK293 cells; peptide 0.625 uM; replicate 1; competitor TCF4-Luc.
Assay [13] shares this target. Put plainly: NanoBRET, Bcat-Halo/TCF4-Luc in HEK293 cells; peptide 0.625 uM; replicate 3; competitor TCF4-Luc.
The target in assay [14] is beta-catenin-Halo (NanoBRET construct expressed in HEK293 cells) (Homo sapiens (Human)) (UniProt P35222). Put plainly: NanoBRET, HEK293 cells with Bcat-Halo and TCF4-Luc; plate row D (5 uM by plate map), plate column 6.
Assay [15] has the same target. Put plainly: NanoBRET, HEK293 cells with Bcat-Halo and TCF4-Luc; plate row C (10 uM by plate map), plate column 5.
The target is the same in assay [16]. As to the kind of experiment: NanoBRET, HEK293 cells with Bcat-Halo and TCF4-Luc; plate row C (10 uM by plate map), plate column 6.
Assay [17] has the same target. Put plainly: NanoBRET, HEK293 cells with Bcat-Halo and TCF4-Luc; plate row E (2.5 uM by plate map), plate column 5.
Assay [18] has the same target. As to the kind of experiment: NanoBRET, HEK293 cells with Bcat-Halo and TCF4-Luc; plate row E (2.5 uM by plate map), plate column 7.
Assay [19] concerns the target beta-catenin-Halo NanoBRET construct (Homo sapiens (Human)) (UniProt P35222). Put plainly: NanoBRET raw acceptor reading, Bcat-Halo/TCF4-Luc in HEK293 cells; plate row B (20 uM by plate map); competitor TCF4-Luc.
The target is the same in assay [20]. Put plainly: NanoBRET raw acceptor reading, Bcat-Halo/TCF4-Luc in HEK293 cells; plate row C (10 uM by plate map); competitor TCF4-Luc.

Chain of beta-catenin-Halo (NanoBRET construct expressed in HEK293 cells) (Homo sapiens (Human)) (P35222 whole entry): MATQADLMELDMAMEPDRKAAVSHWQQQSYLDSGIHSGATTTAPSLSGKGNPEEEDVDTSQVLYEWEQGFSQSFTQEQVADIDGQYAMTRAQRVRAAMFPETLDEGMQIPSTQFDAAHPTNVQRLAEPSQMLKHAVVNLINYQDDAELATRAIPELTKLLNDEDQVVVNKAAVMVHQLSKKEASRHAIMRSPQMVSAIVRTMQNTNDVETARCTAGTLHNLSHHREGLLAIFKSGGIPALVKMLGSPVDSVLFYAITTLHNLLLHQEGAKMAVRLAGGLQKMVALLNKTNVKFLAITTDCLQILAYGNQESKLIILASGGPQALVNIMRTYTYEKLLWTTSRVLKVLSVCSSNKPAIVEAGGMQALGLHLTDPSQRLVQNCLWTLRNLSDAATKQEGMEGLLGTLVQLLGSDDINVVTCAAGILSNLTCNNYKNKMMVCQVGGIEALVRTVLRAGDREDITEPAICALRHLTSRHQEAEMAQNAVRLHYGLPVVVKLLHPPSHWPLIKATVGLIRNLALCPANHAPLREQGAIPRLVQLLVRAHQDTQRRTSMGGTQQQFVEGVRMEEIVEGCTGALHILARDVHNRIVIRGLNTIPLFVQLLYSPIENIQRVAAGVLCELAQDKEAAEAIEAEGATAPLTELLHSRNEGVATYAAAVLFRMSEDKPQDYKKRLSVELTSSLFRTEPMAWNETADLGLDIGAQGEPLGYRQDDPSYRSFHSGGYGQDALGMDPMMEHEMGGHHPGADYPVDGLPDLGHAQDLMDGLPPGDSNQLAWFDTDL
Chain of beta-catenin-Halo NanoBRET construct (Homo sapiens (Human)) (P35222 whole entry): as above
Chain of B-cat-Halo (beta-catenin HaloTag NanoBRET construct expressed in HEK293 cells) (P35222 whole entry): as above

By % Inhibition is commonly meant the change of the read-out against control, counted positive when it falls. Consider Ac-[αAllylPro]F[tBuAla][B5]DDAADN[PyrS2][3Thi][Bta]Q-NH2 (staple 1-4, 4-11) [I-797], for which, in [1], the NanoBRET % inh @ 10 uM turned out to be 4.3%. Also, the % Inhibition is -16.9% in assay [2]; -28.4% in [3]; -18.6% in assay [4]; -21.7% in assay [5]; 1.7% in assay [6]; -36.7% in [7]. Further, the % Inhibition in [8] was -0.3%; in [9] it was -19.5%; in assay [10], -21.3%; in assay [11] it was -24.8%; in assay [12], -56.5%; in assay [13], 8.3%. Moreover, the NanoBRET donor emission 450 BP (raw reading) was 29900 in assay [14]; 58500 in assay [15]; 25900 in assay [16]; 34100 in assay [17]; 40100 in assay [18]. Besides, the Acceptor 600 LP emission in [19] was 860 and 660 and 640; in assay [20] it was 790 and 350 and 470.
